# Reference: publication PMC4027205, “TstI, a Type II restriction–modification protein with DNA recognition, cleavage and methylation functions in a single polypeptide”
# T1: TstI restriction-modification protein (His-tagged) (Thermus scotoductus RFL1 (printed as T. scotoductus RFL1)) (UniProt A6H2J1)
# T1 sequence: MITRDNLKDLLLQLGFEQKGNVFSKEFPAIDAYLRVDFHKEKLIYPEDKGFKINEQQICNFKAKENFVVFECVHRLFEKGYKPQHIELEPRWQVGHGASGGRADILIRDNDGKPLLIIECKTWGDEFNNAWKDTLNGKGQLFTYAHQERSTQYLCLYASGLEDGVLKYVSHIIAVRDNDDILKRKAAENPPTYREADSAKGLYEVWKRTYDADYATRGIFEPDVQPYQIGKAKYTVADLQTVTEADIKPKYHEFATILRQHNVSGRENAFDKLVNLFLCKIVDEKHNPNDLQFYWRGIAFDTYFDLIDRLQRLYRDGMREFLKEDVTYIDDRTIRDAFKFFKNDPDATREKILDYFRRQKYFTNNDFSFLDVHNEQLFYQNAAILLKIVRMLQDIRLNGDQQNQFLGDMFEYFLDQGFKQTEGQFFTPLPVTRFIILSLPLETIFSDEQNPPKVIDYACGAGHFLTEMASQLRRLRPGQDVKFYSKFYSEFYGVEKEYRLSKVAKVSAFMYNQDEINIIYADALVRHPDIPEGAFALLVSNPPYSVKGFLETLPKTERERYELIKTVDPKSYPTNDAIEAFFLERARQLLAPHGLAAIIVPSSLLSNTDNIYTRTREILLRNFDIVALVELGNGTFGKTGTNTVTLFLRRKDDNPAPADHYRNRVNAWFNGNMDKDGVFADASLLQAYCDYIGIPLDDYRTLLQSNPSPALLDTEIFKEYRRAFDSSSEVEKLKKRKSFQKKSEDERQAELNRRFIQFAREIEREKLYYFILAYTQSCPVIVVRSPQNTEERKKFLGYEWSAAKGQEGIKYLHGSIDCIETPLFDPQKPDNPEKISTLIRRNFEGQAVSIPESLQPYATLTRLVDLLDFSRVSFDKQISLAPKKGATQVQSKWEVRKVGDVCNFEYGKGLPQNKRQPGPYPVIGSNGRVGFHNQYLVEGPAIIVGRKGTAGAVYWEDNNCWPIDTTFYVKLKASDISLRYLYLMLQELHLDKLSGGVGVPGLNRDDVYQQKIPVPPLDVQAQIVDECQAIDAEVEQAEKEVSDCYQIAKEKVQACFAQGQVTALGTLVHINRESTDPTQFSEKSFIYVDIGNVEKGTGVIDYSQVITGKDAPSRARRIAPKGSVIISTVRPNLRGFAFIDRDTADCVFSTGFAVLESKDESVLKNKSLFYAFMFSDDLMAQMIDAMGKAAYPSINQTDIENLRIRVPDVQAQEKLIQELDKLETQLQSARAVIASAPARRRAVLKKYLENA
# T2: TstI restriction-modification protein (His-tagged) (Thermus scotoductus RFL1 (printed as T. …, UniProt A6H2J1 1-1251))
# T2 sequence: T1 sequence
# B1: 50NS (dsDNA)
# DNA 1: CTGTCTGAGATACACTCGTCTCGAACAAACCATCCAGTCTCTGACTATGT
# DNA 2: ACATAGTCAGAGACTGGATGGTTTGTTCGAGACGAGTGTATCTCAGACAG
# What was measured:
# [1] = molecular target: TstI RM protein (His-tagged form) (Thermus scotoductus RFL1); assay: AUC; sedimentation equilibrium; TstI 0.1-0.3 mg/ml in 20 mM Tris-HCl pH 8.4, 100 mM KCl, 10 mM MgCl2, 20°C; 5000, 6000 and 7500 rpm; global fit to a single ideal species
# [2] = molecular target: T1, TstI restriction-modification protein (His-tagged) (Thermus scotoductus RFL1 (printed as T. scotoductus RFL1)); assay: cleavage kinetics: kobs vs enzyme concentration, hyperbolic fit (no direct binding read-out); conditions: EMSA conditions not given (data not shown); cleavage in buffer R (composition not in material), 37 C
# [3] = molecular target: T2, TstI restriction-modification protein …; assay: EMSA; data not shown; EMSA conditions not given (data not shown); cleavage in buffer R (composition not in material), 37 C; conditions: protein: recombinant; tags: N-terminal His tag (pET15b, 20 extra aa); chain copies: 4
molecule,measurement,setting,value
TstI RM protein (His-tagged form) (enzyme),stoichiometry N,[1],4
pTST1,K half,[2],19 nM
B1,binding result,[3],binds
